Experimental findings from US20170002055A1, “Novel peptides and combination of peptides for use in immunotherapy against ovarian cancer and other cancers” (immatics biotechnologies GmbH, priority 2015, published 2017) are described below.

The assay has as its target HLA-A*02:01 (Homo sapiens, UniProt P04439, D140Y/D185E/D98H/E176V/E277Q/G131W/G231S/I119V/I121R/I166T/I218V/L300P/L318F/N151K/N90K/P208A/P217A/Q86G/Q94H/R138H/R169H/T345S). Briefly: MHC binding assay (UV-ligand exchange, β2m ELISA, peptide exchange yield). Particulars: MHC class I binding score; binding to HLA-A*02:01 ranged by peptide exchange yield (UV-ligand exchange, β2m ELISA). The source says: Candidate peptides for T cell based therapies according to the present invention were further tested for their MHC binding capacity (affinity). The individual peptide-MHC complexes were produced by UV-ligand exchange, where a UV-sensitive peptide is cleaved upon UV-irradiation, and exchanged with the peptide of interest as analyzed. Only peptide candidates that can effectively bind and stabilize the peptide-receptive MHC molecules prevent dissociation of the MHC complexes. To determine the yield of the exchange reaction, an ELISA was performed based on the detection of the light chain (β2m) of stabilized MHC complexes. The assay was performed as generally described in Rodenko et al. (Rodenko et al., 2006).
96 well MAXISorp plates (NUNC) were coated over night with 2 ug/ml streptavidin in PBS at room temperature, washed 4× and blocked for 1h at 37° C. in 2% BSA containing blocking buffer. […] Peptide-MHC monomers of the UV-exchange reaction were diluted 100 fold in blocking buffer. Samples were incubated for 1h at 37° C., washed four times, incubated with 2 ug/ml HRP conjugated anti-β2m for 1h at 37° C., washed again and detected with TMB solution that is stopped with […]. Absorption was measured at 450 nm. Candidate peptides that show a high exchange yield (preferably higher than 50%, most preferred higher than 75%) are generally preferred for a generation and production of antibodies or fragments thereof, and/or T cell receptors or fragments thereof, as they show sufficient avidity to the MHC molecules and prevent dissociation of the MHC complexes.
As for “1 (SLMEPPAVLLL; listed as Homo sapiens) [compound 1]”, the Peptide exchange entry is listed as ““+++” (≧50 = +++)”.

Take “4 (GIMEHITKI; listed as Homo sapiens) [compound 4]”: the Peptide exchange result is ““++++” (≧75% = ++++)”.

In the case of “6 (VLVSDGVHSV; listed as Homo sapiens) [compound 6]”, the Peptide exchange entry is recorded as ““+++” (≧50 = +++)”.

As to “9 (GAAKDLPGV; listed as Homo sapiens) [compound 9]”, the Peptide exchange entry is ““++” (≧20% = ++)”.

In the case of “10 (FLATFPLAAV; listed as Homo sapiens) [compound 10]”, the Peptide exchange result is ““++++” (≧75% = ++++)”.

In the case of “12 (SLWPDPMEV; listed as Homo sapiens) [compound 12]”, the Peptide exchange entry is ““+++” (≧50 = +++)”.

For the substance “13 (YLMDESLNL; listed as Homo sapiens) [compound 13]”, the Peptide exchange entry is given as ““+++” (≧50 = +++)”.

As to “14 (AAYGGLNEKSFV; listed as Homo sapiens) [compound 14]”, the Peptide exchange entry is on record as ““+++” (≧50 = +++)”.

With “15 (VLLTFKIFL; listed as Homo sapiens) [compound 15]”, the Peptide exchange entry is given as ““++” (≧20% = ++)”.

On to “16 (VLFQGQASL; listed as Homo sapiens) [compound 16]”, for which the Peptide exchange result is on record as ““+++” (≧50 = +++)”.

As for “18 (YLVAKLVEV; listed as Homo sapiens) [compound 18]”, the Peptide exchange entry was ““++” (≧20% = ++)”.

For “20 (RMIEYFIDV; listed as Homo sapiens) [compound 20]”, the Peptide exchange result is reported as ““+++” (≧50 = +++)”.

Regarding “21 (VLDELDMEL; listed as Homo sapiens) [compound 21]”, the Peptide exchange result is recorded as ““++” (≧20% = ++)”.

In the case of “22 (IMEENPGIFAV; listed as Homo sapiens) [compound 22]”, the Peptide exchange result is recorded as ““+++” (≧50 = +++)”.

For the substance “23 (VLLDDIFAQL; listed as Homo sapiens) [compound 23]”, the Peptide exchange result is reported as ““+++” (≧50 = +++)”.

With “24 (SLSDGLEEV; listed as Homo sapiens) [compound 24]”, the Peptide exchange entry is recorded as ““++” (≧20% = ++)”.

“25 (FLPDEPYIKV; listed as Homo sapiens) [compound 25]”: the Peptide exchange entry was ““+++” (≧50 = +++)”.

In the case of “26 (ALLELAEEL; listed as Homo sapiens) [compound 26]”, the Peptide exchange entry is listed as ““+++” (≧50 = +++)”.

For the substance “27 (ILADIVISA; listed as Homo sapiens) [compound 27]”, the Peptide exchange result is listed as ““+++” (≧50 = +++)”.

In the case of “28 (QLLDETSAITL; listed as Homo sapiens) [compound 28]”, the Peptide exchange result was ““+++” (≧50 = +++)”.

As to “29 (KMLGIPISNILMV; listed as Homo sapiens) [compound 29]”, the Peptide exchange entry was ““+++” (≧50 = +++)”.

With “30 (LILDWVPYI; listed as Homo sapiens) [compound 30]”, the Peptide exchange entry was ““+++” (≧50 = +++)”.

As to “31 (YLAPELFVNV; listed as Homo sapiens) [compound 31]”, the Peptide exchange result was ““++” (≧20% = ++)”.

On to “32 (KLDDLTQDLTV; listed as Homo sapiens) [compound 32]”, for which the Peptide exchange result was ““++” (≧20% = ++)”.

For “33 (VLLSLLEKV; listed as Homo sapiens) [compound 33]”, the Peptide exchange entry is ““++” (≧20% = ++)”.

Turning to “34 (ILVEADSLWVV; listed as Homo sapiens) [compound 34]”, the Peptide exchange result is recorded as ““+++” (≧50 = +++)”.

Regarding “35 (KINDTIYEV; listed as Homo sapiens) [compound 35]”, the Peptide exchange result is listed as ““+++” (≧50 = +++)”.

With “39 (SVAPNLPAV; listed as Homo sapiens) [compound 39]”, the Peptide exchange entry is ““+++” (≧50 = +++)”.

For “41 (SLMPHIPGL; listed as Homo sapiens) [compound 41]”, the Peptide exchange entry was ““+++” (≧50 = +++)”.

As for “42 (VLLQKIVSA; listed as Homo sapiens) [compound 42]”, the Peptide exchange entry was ““+++” (≧50 = +++)”.

On to “43 (VLSSLEINI; listed as Homo sapiens) [compound 43]”, for which the Peptide exchange result is on record as ““++” (≧20% = ++)”.

As to “44 (ILDPISSGFLL; listed as Homo sapiens) [compound 44]”, the Peptide exchange result is ““++” (≧20% = ++)”.

Regarding “45 (SLWQDIPDV; listed as Homo sapiens) [compound 45]”, the Peptide exchange entry is on record as ““+++” (≧50 = +++)”.

Take “46 (ILTEENIHL; listed as Homo sapiens) [compound 46]”: the Peptide exchange result is ““+++” (≧50 = +++)”.

As to “47 (ILLSVPLLVV; listed as Homo sapiens) [compound 47]”, the Peptide exchange result is ““++” (≧20% = ++)”.

Regarding “50 (SLSELEALM; listed as Homo sapiens) [compound 50]”, the Peptide exchange result was ““+++” (≧50 = +++)”.

In the case of “51 (LLPDLEFYV; listed as Homo sapiens) [compound 51]”, the Peptide exchange result was ““++++” (≧75% = ++++)”.

For “52 (FLLAHGLGFLL; listed as Homo sapiens) [compound 52]”, the Peptide exchange entry is reported as ““++++” (≧75% = ++++)”.

As to “53 (KMIETDILQKV; listed as Homo sapiens) [compound 53]”, the Peptide exchange entry is reported as ““++++” (≧75% = ++++)”.

As for “54 (SLLEQGKEPWMV; listed as Homo sapiens) [compound 54]”, the Peptide exchange entry is listed as ““+++” (≧50 = +++)”.

For “55 (SLLDLETLSL; listed as Homo sapiens) [compound 55]”, the Peptide exchange result was ““++++” (≧75% = ++++)”.

“57 (TLAELQPPVQL; listed as Homo sapiens) [compound 57]”: the Peptide exchange entry is recorded as ““+++” (≧50 = +++)”.

“59 (IMEDIILTL; listed as Homo sapiens) [compound 59]”: the Peptide exchange entry was ““+++” (≧50 = +++)”.

With “62 (VLLDVSAGQLLM; listed as Homo sapiens) [compound 62]”, the Peptide exchange entry is reported as ““++++” (≧75% = ++++)”.

As to “63 (YLLPSGGSVTL; listed as Homo sapiens) [compound 63]”, the Peptide exchange entry is listed as ““++” (≧20% = ++)”.

As to “64 (YAAPGGLIGV; listed as Homo sapiens) [compound 64]”, the Peptide exchange entry is recorded as ““++” (≧20% = ++)”.

Take “66 (FLDENIGGVAV; listed as Homo sapiens) [compound 66]”: the Peptide exchange result was ““+++” (≧50 = +++)”.

On to “67 (TLLAEALVTV; listed as Homo sapiens) [compound 67]”, for which the Peptide exchange entry is ““+++” (≧50 = +++)”.

Consider “68 (SLMELPRGLFL; listed as Homo sapiens) [compound 68]”, for which the Peptide exchange entry was ““++++” (≧75% = ++++)”.

As to “69 (FQLDPSSGVLVTV; listed as Homo sapiens) [compound 69]”, the Peptide exchange result is ““+++” (≧50 = +++)”.

On to “70 (GLLDYPVGV; listed as Homo sapiens) [compound 70]”, for which the Peptide exchange entry was ““+++” (≧50 = +++)”.

Turning to “71 (GILARIASV; listed as Homo sapiens) [compound 71]”, the Peptide exchange result was ““+++” (≧50 = +++)”.

As for “72 (SLLELDGINL; listed as Homo sapiens) [compound 72]”, the Peptide exchange entry is ““+++” (≧50 = +++)”.

As for “73 (NIFDLQIYV; listed as Homo sapiens) [compound 73]”, the Peptide exchange entry is given as ““+++” (≧50 = +++)”.
